Assay results published in PMC10347550, “Cyclic Ruthenium-Peptide Conjugates as Integrin-Targeting Phototherapeutic Prodrugs for the Treatment of Brain Tumors” (Journal of the American Chemical Society, 2023).
Where two headings read alike, the source gives them in different places.

Legend:
[1] = Octanol-water partition coefficient (log P); type: physicochemical; details: shake-flask, octanol-saturated water / water-saturated octanol, shaken 24 h in the dark, room temperature; Ru in water phase by ICP-MS; ± SD from 4 concentration points
Method: Each complex was first dissolved in octanol-saturated water (0.5 mM, 500 μL) and centrifuged (2000 rpm, 5 min) to isolate the undissolved solid. 450 μL of the supernatant was taken out as the stock solution; after that, 5, 10, 50, 100, and 150 μL of solution were added to the 15 mL tube, and more octanol-saturated water was added to adjust the final volume to 1 mL. 1 mL of water-saturated octanol was added further, and the tubes were mildly shaken (Gesellschaft für Labortechnik mbH, type3016) for 24 h under dark conditions. After that, the solutions were centrifuged for 5 min at 2000 rpm at room temperature, and 0.5 mL of the water phase (below phase) was moved to a 15 mL centrifuge tube by an Eppendorf pipette. Then, 0.1 mL of 65% HNO3 was added into the tube using an organic pipette gun, and each solution was shaken for 1 h. 9.9 mL of MilliQ water was added into each tube, making a total volume of 10 mL. To detect the Ru content of the stock solution, 10 μL of each stock solution was mixed with 0.490 mL of 65% HNO3, and the mixture was shaken for 1 h. Then, […] of MilliQ water was added to the tube, making a total volume of 10 mL. ICP-MS measurement was performed using a NexION 2000 from PerkinElmer. The ruthenium content in each well was obtained in ppb. The partition coefficients (log P) were calculated using the following eq 3 [drawing 3] 3
where [complex]total is the concentration of the complex in the control sample (where no water-saturated octanol was added) and [complex]water is the concentration of the complex in the aqueous layer.

U87MG cells [2] = experiment: Apopxin/Nuclear Green DCS1 double-staining cell death mode study; type: cell-based, human; details: 20 μM, 24 h incubation, 1 h after green light (13.1 J/cm^2), flow cytometry
Method: After 24 h of incubation, one plate labeled light was irradiated for 20 min using 520 nm green light (13.1 J/cm^2), and then both plates were allowed to incubate further for 1, 2, 6, or 24 h in a normoxia incubator. After incubation, the cells were trypsinized, collected, and washed with cold PBS twice. […] Cells after staining were detected by flow cytometry (CytoFLEX flow cytometer) immediately. Control groups with only assay buffer, only buffer and Apopxin Deep Red Indicator, only buffer and Nuclear Green DCS1, and all three were included to be used for gating during data analysis. Parameters APC (638 nm excitation, 660/10 nm emission) and FITC (488 nm excitation, 525/40 nm emission) were used considering their similar excitation/emission wavelength with two detectors Apopxin Deep Red Indicator, Ex/Em = 630/660 nm (apoptosis), and Nuclear Green DCS1, Ex/Em = 490/520 nm (necrosis).

[3] = Nanoaggregation in Opti-MEM by DLS and TEM; type: physicochemical; details: dark; for DLS size distribution: 24 h
Method: DLS was used to determine the distribution of particles in complex solutions (50 μM) in Opti-MEM (Gibco complete medium 11058-021, supplemented with 0.2% v/v penicillin/streptomycin (P/S), and 1% v/v glutamine) with or without 2.5% fetal calf serum (FCS) proteins via a ZEN1600 Zetasizer Nano instrument (Malvern Instruments Limited) operated with a 633 nm laser.
The TEM experiments were carried out with a TEM JEOL 1010:100 kV transmission electron microscope using a Formvar/carbon-coated copper grid (Polysciences Inc.). For the preparation of samples, a 1 mM stock aqua solution was diluted to 50 μM by Opti-MEM, after which, each drop (15 μL) of the complex solution was deposited on a parafilm (Bemis, HS234526C). The grids (Electron Microscopy Sciences, 71137) were placed on top of the drops for 5 min and then the excess liquid on the grid was removed with filter paper and air dried for 2 h for the TEM measurement. The TEM measurements were carried out under vacuum conditions.

PC-3 cells = experiment: Cellular Ru uptake by ICP-MS; type: cell-based, human; details: dark, 6 h, triplicate wells, ± SEM
Method: (§1) U87MG cells (6000), PC-3 cells (5000), and MCF7 cells (8000) were seeded in 96-well plates, each well containing 100 μL of Opti-MEM. After 24 h, 12.5 μM drugs dissolved in Opti-MEM were added to each well and the plates were incubated in a normoxic or hypoxic incubator for 6 h. After that, the drug-containing medium was removed from each well, which was washed with PBS buffer once. Then, cells were stained by Nuclear Blue (Invitrogen, R37605) for 30 min to stain all nuclei (2 drops/mL medium). After this, the dye was thereafter removed and replaced with fresh medium. The entire well was imaged with 10× objective magnification and 7 × 6 montage using epifluorescence on a Nikon TiE2000 widefield microscope with a perfect focus system and automated xy-stage. The cell number of every well was analyzed by counting the nuclei using Image-Pro Analyzer 7.0. Thereafter, the medium was removed and the cells were digested by adding 100 μL of 65% HNO3 for 30 min at room temperature. The cell lysates were transferred into a 96-deep well plate (Eppendorf, E951033502), followed by the addition of 0.9 mL of MilliQ water into each well, and the plate was then mixed well with a 1000 μL Eppendorf pipette.
(§2) The ruthenium concentration was measured in each sample by ICP-MS (NexION 2000, PerkinElmer), providing the metal content in each well in ppb. Combining the cell numbers and Ru uptake, averaging over technical triplicates, the ruthenium uptake values were finally expressed in μg Ru/million cells.

U87MG cells [4] = experiment: Cellular Ru uptake by ICP-MS; type: cell-based, human; details: dark, 6 h, triplicate wells, ± SEM
Method: as §1, §2

MCF7 cells = experiment: Cellular Ru uptake by ICP-MS; type: cell-based, human; details: dark, 6 h, triplicate wells, ± SEM
Method: as §1, §2

U87MG spheroids = experiment: 3D tumor spheroid viability assay, CellTiter-Glo 3D; type: cell-based, human; details: U87MG 3D spheroids; for EC50: CellTiter-Glo 3D at 96 h, n = 3
Method: The spheroids were incubated further under normoxia. […] After 30 min of shaking on an IKA Vibrax shaker at 500 rpm at room temperature, the luminescence in each well was measured with a Tecan microplate reader. […] All experiments were conducted in three biologically independent replicates.

U87MG cells [5] = experiment: Intracellular ROS generation, CellROX Deep Red, flow cytometry; details: 15 µM, 24 h
[6] = 21% O2, dark, 24 h treatment, read-out: EC50,dark
[7] = 21% O2, green light after 24 h treatment, read-out: EC50,light

| PI (EC50,dark/EC50,light) (U87MG spheroids; 21% O2) | EC50 (U87MG spheroids; [6]) | EC50 (U87MG spheroids; [7]) | Substance | log P (octanol-water partition coefficient) [1] | cell death mode (U87MG cells [2]) | nanoparticle formation (DLS) ([3]; 50 μM in Opti-MEM with 2.5% FCS, 24 h (Figure S20)) | Ru accumulation (PC-3 cells; PC-3, hypoxia 1% O2, 12.5 µM, listed as L-[1]Cl2) | Ru accumulation (PC-3 cells; PC-3, normoxia 21% O2, 12.5 µM, listed as L-[1]Cl2) | Ru accumulation (U87MG cells [4]; hypoxia 1% O2, 12.5 µM, listed as L-[1]Cl2) | Ru accumulation (U87MG cells [4]; normoxia 21% O2, 12.5 µM) | Ru accumulation (MCF7 cells; MCF7, hypoxia 1% O2, 12.5 µM) | Ru accumulation (MCF7 cells; MCF7, normoxia 21% O2, 12.5 µM, listed as L-[1]Cl2) | Ratio of L/D (light/dark ROS ratio) (U87MG cells [5]) | DLS size distribution ([3]; 50 μM in Opti-MEM with 2.5% FCS) | DLS size distribution ([3]; 50 μM in Opti-MEM without FCS) | Ru accumulation (PC-3 cells; PC-3, hypoxia 1% O2, 12.5 µM) | Ru accumulation (PC-3 cells; PC-3, normoxia 21% O2, 12.5 µM) | Ru accumulation (U87MG cells [4]; hypoxia 1% O2, 12.5 µM) | Ru accumulation (MCF7 cells; MCF7, normoxia 21% O2, 12.5 µM) |
| --- | --- | --- | --- | --- | --- | --- | --- | --- | --- | --- | --- | --- | --- | --- | --- | --- | --- | --- | --- |
| 4.9 | 37 µM | 7.6 µM | [Ru(Ph2phen)2(κ^S,κ^N-(Ac-MRGDH-NH2))]Cl2 (sidechain bridge or staple) [Λ-[1]Cl2] | −0.03 ± 0.02 | died mainly via necrosis | Nanoparticles of similar size were observed | 0.68 ± 0.01 µg Ru/million cells | 0.55 ± 0.03 µg Ru/million cells | 0.84 ± 0.01 µg Ru/million cells | 0.74 ± 0.01 µg Ru/million cells | 0.31 ± 0.01 µg Ru/million cells | 0.25 ± 0.01 µg Ru/million cells | 7.03 |  |  |  |  |  |  |
| 4.2 | 46 µM | 10.9 µM | [Ru(Ph2phen)2(κ^S,κ^N-(Ac-MRGDH-NH2))]Cl2 (sidechain bridge or staple) [Δ-[1]Cl2] | 0.00 ± 0.02 | died mainly via necrosis |  |  |  |  | 0.73 ± 0.01 µg Ru/million cells | 0.31 ± 0.01 µg Ru/million cells |  | 8.24 | around 100 nm | above 1 μm | 0.63 ± 0.02 µg Ru/million cells | 0.51 ± 0.01 µg Ru/million cells | 0.78 ± 0.01 µg Ru/million cells | 0.21 ± 0.01 µg Ru/million cells |
